Measured values: the supplement of paper PMC10567573

B1: C8orf76 (parent)
chain: YCAKLCEPQWFYEETESSDDVEVL

Variants of: B1
Assay: protein stability index of a GFP-peptide fusion (GPS, HEK-293T) (PSI 1-6); higher = more stable
Conditions: c terminus: a fixed tail appended
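Further: lentivirally expressed fusions sorted by FACS into six bins by GFP to DsRed ratio, PSI derived from sequencing read proportions per bin multiplied by bin number.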

Protein stability index, by site and new letter:
A3: W 1.95; V 3.04; G 2.01; K 3.07; E 4.06; R 1.75; I 2.51; M 3.1; Q 2.28; P 1.71; Y 2.83; T 2.45; S 2.78; C 2.7; N 2.74; L 2.78; H 2.59; D 3.48; F 2.3
E14: T 2.17; I 1.23; N 2.37; C 1.8; G 2.11; L 2.29; K 1.39; Q 1.72; F 2.24; M 2.78; Y 2.04; P 1.84; H 2.1; W 1.46; A 2.14; R 1.8; D 2.36; S 2.15; V 1.86
C6: N 2.36; D 2.93; G 1.52; K 2.93; T 1.84; I 2.88; E 3.63; H 2.32; P 2.86; V 3.3; R 2.21; L 2.96; M 2.79; W 1.77; F 2.41; S 2.18; Y 2.29; A 2.95; Q 3.02
S18: T 2.11; E 2.54; Y 2.29; H 2.06; D 2.6; N 2.33; R 2; F 1.49; C 2.13; V 2.1; P 2.3; Q 2.38; K 2.28; L 2.23; A 2.54; I 1.88; M 2.34; G 2.39
T15: K 2.08; M 1.91; E 2.72; N 2.08; W 1.81; A 2.63; D 2.9; R 2.9; H 2.12; Y 1.96; V 2.17; F 2.02; Q 2.43; P 2.84; L 1.75; C 2.16; G 2.27; S 2.54; I 1.91
W10: A 4.04; Q 4.45; F 3.22; G 4.02; S 4.48; P 3.92; I 3.45; M 3.51; K 4.15; D 4.5; Y 2.71; T 4.34; L 3.04; C 3.87; E 3.98; H 3.52; R 4.74; N 4.07; V 3.35
E7: A 2.27; I 2.32; M 2.49; S 2.82; Q 3.27; R 2.6; H 2.57; N 2.67; F 2.33; W 1.63; G 2.43; L 2.83; V 2.3; C 2.69; T 2.5; D 3.69; K 2.78; Y 2.2; P 2.46
Y12: P 3.15; A 2.28; F 2.43; G 2.62; I 1.97; N 2.62; K 2.39; M 1.97; D 3.63; L 2.14; R 2.76; C 1.98; V 2.16; W 1.8; S 2.52; Q 2.23; H 2.44; E 3.35; T 1.82
F11: R 2.89; H 2.71; I 2.75; T 3.48; S 3.54; E 4.83; G 3.43; V 3.38; K 3.96; A 3.01; C 3.41; Q 3.57; P 3.44; Y 1.88; M 3.28; N 3.48; L 3.56; D 4.38; W 2.63
E16: M 2.31; K 2.28; S 1.74; G 1.87; V 1.53; Q 1.54; H 3.15; L 3.46; R 1.77; F 2.19; I 2.14; W 1.65; Y 2.59; D 2.41; N 1.89; P 1.65; A 2.25; C 1.58; T 2.22
C2: W 2.82; Y 2.87; V 2.1; T 3.22
D19: L 1.76; T 2.19; G 2.09; H 2.25; N 2.26; F 2.1; I 1.76; E 2.35; A 2.15; Q 2.2; K 2.3; Y 1.76; V 2.07; M 1.58; C 1.4; S 2.08; P 1.57; R 2; W 1.41
P8: Q 2.55; V 2.19; S 2.62; Y 1.76; K 1.62; E 3.1; R 1.86; A 2.09; H 2.12; C 1.73; T 2.55; L 1.67; I 1.58; W 2.27; D 3.18; F 1.94; M 2.32; N 2.69; G 2.56
E13: N 1.6; I 2.1; W 1.8; T 2.1; Y 1.55; F 2.16; K 1.42; Q 1.65; L 2.12; P 1.92; R 1.64; V 1.57; M 2.13; D 2.04; S 2.51; G 1.26; H 1.91; A 2.11
K4: G 1.98; T 2.94; Q 3.46; H 2.84; C 2.96; E 4.61; I 2.29; D 3.69; N 4.3; M 2.48; A 2.54; W 2.08; Y 3.2; S 2.01; F 2.56; R 2.54; L 2.71; V 3.05; P 2.43
D20: A 2.27; E 1.92; F 2.04; C 2.49; L 1.67; H 1.91; G 1.37; K 2.01; I 1.74
S17: Q 2.35; R 2.25; G 3.01; I 1.83; F 1.87; D 3.15; W 2.74; V 2.25; N 2.4; L 1.98; E 2.85; P 2.34; A 2.38; H 1.87; K 2; M 2.14; T 2.42; Y 2.24; C 1.68
Q9: C 1.93; G 2.15; H 2.13; R 1.41; L 2.14; I 2.22; S 2.4; Y 2.66; D 3.86; A 2.46; M 1.88; N 2.17; K 2.09; P 2.03; W 1.04; F 2.19; V 1.74; T 2.29; E 3.13
L5: D 3.42; C 3.03; A 2.62; N 3.31; E 2.94; M 2.97; Q 2.63; V 2.4; S 2.04; W 1.28; R 2.44; P 2.15; F 2.29; T 2.78; H 2.72; K 2.05; Y 3.33; I 1.98; G 2.99
